# Experimental data reported in the nanobody polyreactivity screen of Harvey et al. (2022).
# Assay: yeast display, Sf9 membrane polyspecificity reagent, FACS + sequencing; frameworks hold sequencing errors
# Procedure, shortened: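 In a synthetic yeast display library (Saccharomyces cerevisiae BJ5465), nanobody expression was induced with galactose for 36–48 hours. FACS gates were set low and high (top ~1%) using anti-HA fluorescence for expression and streptavidin fluorescence for binding of the Sf9 membrane reagent. Each polyreactivity label is drawn from the gate of origin.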
row,Sequence,polyreactivity (PSR sort gate)
1,QVQLVESGGGLVQAGGSLRLSCAASGRTFVYYAMGWYRQAPGTERELVAAITFSGGYTYYADSVKGRFTISRDNAKNTVYLQMNSLKPEDTAVYYCAAQYRYSYPLGDYWGQGTQVTVSS,low polyreactivity
2,QVQLVESGGGFVQAGGSLRISCAASGRTFYPYAMGWYRQAPGKERELVAAISRSGGGTYYADSVKGRFTISRDNAKNTVYLQMNSLKPEDTAVDYCAADDGVAIYDYWGQGTQVTVSS,low polyreactivity
3,QVQLVESGGGLVQAGGSLRLSCAASGLILHKYAMGGSRQAPGKERELVASINSGANTNYADSVKGRFTISRDNAKNTVYLQMNSLKPEDTAVYYCNADPGFRSGDYGYSSFDYWGQGTQVTVSS,low polyreactivity
4,QVQLVESGGGLVQAGGSLRLSCAASGITFYIYAMGWYRQAPGKERELVAAISDDGSTHYADSVKGRFTISRDNAKNTVYLQMNSLTPEDTAVYYCNADDDWFFDFFDYDYWGQGTQVTVSS,low polyreactivity
5,QVQLVESGGGLVQAGGSLRLSCSASGRTFLGYAMGWYRQAPGKERELVAAITIGGGTYADSVKGRFTISRDNAKNTVYLQMNSLKPEDTAVYYCAKPGWYDGDYWGQGTQVTVSS,low polyreactivity
6,QVQLVESGGGLVQAGASLRLSCAASGSILVDNAMGSYRQAPWKERELVARITGSGGSTYYADSVKGRCTISRDNAKNTVYLQMNSLKPEDTAVYYCAARRVNAGWTYGLRGNYWGQGSQVTVSS,low polyreactivity
7,QVQLVESGGGLVQAGGSLRLSCAASGRIFGYYAMGWYRQAPGKERELVASIRRGTRTNYADSVKGRFTISRDNAKNTVYLQMNSLKPEDTAVYYCAATRFQFTTTPWYDYWGQGTQVTVSS,high polyreactivity
8,QVQLVESGGGLVQAGGSLRLSCDASGTFYGKTMGWYRQAPGKERELVAVISIDGSTNYADSVKGRFTISRDNAKNTVYLQMNSLKPEDTAVYYCNARNQWRTVGKYDYWGQGTQVTVSS,low polyreactivity
9,QVQLVESGGGLVQAGGSLRLICAASGFTFNFYAMGWYRQAPGKEMELVASITSSGARTYYADSVKGRFTISRDNAKNSVYLQMNSQKPEDTAVYYCAARVYRYSASRAYDYWGQGTQVTVSS,high polyreactivity
10,QVQLVESGGGLVQAGGSLRLSCADSGLIFTAHDMGWYRQAPGKERELVADISKSGSSTYYADSVKGRFTISRDNAKNTVYLQMNSLKPEDTAVYYCNADYLTYFTTFDYWGQGTQVTVSS,low polyreactivity
11,QVQLVESGGGLVQAGGSLRLSCAASGSIFDYNAKGWYRPAPGKERELVASISGDSGSTYYADSVKGRFTISRDNAKNTVYLQMNSLKPEDTAVYYCAAPYVSWDYRYYYWGQGTQVTVSS,low polyreactivity
12,QVQLVESGGGLVQAGGSLRLSCAASGFIFRRYVMGWYRQAPGKERELVAAISYGGGSTYYADSVKGRFTISRDNAKITVYLQMNSLKPEDTAVYYCAKLYYRHLYEYDYWGQGTQVTVSS,high polyreactivity
13,QVQLVESGGGLVQAGGSLRLSCAASGRIFSAYAMGWYRQAPGKERELVAVISSGDSTNYADSVKGRFTISRDNAKNTVYLQMNSLKPEDTAVYYCNARGKHRYGFRSHVGNEYWGQVTQVTVSS,low polyreactivity
14,QVQLVESGGGLVQAGGSHRLSCAASGRIFNWYAMGWYRHAPGKDRALVARISSGDITSYADSVKGRFSISRDNAKNTVYLQMNILKPEDTAVYYCAARQWFLYDYWGQGTQVTVSS,low polyreactivity
15,QVQLVESGGGLVQAGGSLRLSCAASGSTFGYYAMGWYRQAPGRERELVAAISYRSGSTYYADSVKGRFTISRDNAKNTVYLQMNSLKPEDTAVYYCAARFGRGSRYYYWGQGTQVTVSS,high polyreactivity
16,QVQLVESGGGLVQAGGSLRLSCAASGIIIYNYTMGWYRQAPGKERELVAAISRSGGRTYYADSVKGRFTISRDNAKNNVYLQMNSLKPEDTAVYYCAAAGYYHTYWGTMDFWGQGTQVTVSS,high polyreactivity
17,QVQLVESGGGLVQAGGSLRLSCAASGFIFGFYAMGWYRQAPGKERELVAAISSSGGSTYYADSVKGRFTISRDTAKNTGYLQMNSLKPEDTAVYYCAAYFYYLDDAVTYDYWGQGTQVTVSS,low polyreactivity
18,QDQLVESGGGLVQAGGSLRLSCAASGRIFYYNAIGWYRQAPGKEMELVATITRAGGTYYADSVKGRFTISRDNAKNTVYLQMNSLKPEDTAVYYCAKRHPIVDDYKGDYWGQGTQVTVSS,low polyreactivity
19,QVQLVESWGGLVQAGGSLRLSCAASGSTIDTNTMGWYRQAPGKEREWVAAITWSDASTYADSVKGRFTISRDNAKNTVYFQMNSLKPEDTAVYYCNADWTITVGYDYWGQGTKVTVSS,low polyreactivity
20,QVQLVESGGGLVQAGGSLRLSCAASGIIFYRNAMGWYRQAPGKERELVAGITSGGSTYYADSVKGRFTISRDNAKNTVYLQMNSLKPEYTAVYYCAAYYRASQRYLQYGYWGQGTQVTVSS,high polyreactivity
21,QVQLVESGGGLVQAGGSLRLSCAASGSIVENMGWYRQAPGKERELVAAISSSGDSTYYADSVKGRFTISRDNAKNTVYLQMNSLKPEDTAVYYCAADFYYYKKQYDYWGQGTQVTVSS,low polyreactivity
22,QVQLVESGGGLVQAGGSLRLSCAASGRTFKHYAMGWYRQAPGKERELVAAITSGGSTYYADSVKGRFTISRDNAKNTVYLQMNSLKPEDTAVYYCNKESYFDTYRRYDSWGQGTQVTVSS,low polyreactivity

row,Sequence,polyreactivity (PSR sort gate)
1,QVQLVESGGGLVQAGGSLRLSCAASGSIFHKNAMGWYIQAPGKERELVARITSSSGSTYYADSVKGRFTISRDNAKNTVYLQMNSLKPEDTAVYYCNASPTTTPNFWRYDYWGQGTQVTVSS,high polyreactivity
2,QVQLVESGGALVQAGGSLRLSCAASGRIFGVNAIGWYRQAPGKERELVADISSGGSTNYADSVKGRFTISRDNAKNTVYLQMNSLKPEDTAVYYCAARTLRAGYRASGVRRDYWGQGTQVTVSS,high polyreactivity
3,IIPAGGSLRLSCAASGATLIGYTMGWYRQAPGKERELVDAITWGAGSTNYADSVKGRFTISRDNAKNTVYLQMNSLKPEDTAVYDCNADSISDPRYLGEYDYWGQGTQVTVSS,low polyreactivity
4,QVQLVDSAGGLVQAGGSLRLSCDAYGSNFGVNAMGWYRQAPGKERELVAIITSTTYADSVKGRFTISRDNAKNTVYLQMNSLKREDTAVYYCAIDQERVTKGRFYLLEYDWGHGTQVTVSS,low polyreactivity
5,QVQLVESGGGLVQAGGSLRLSCAASGRTFYANAMGWYRQAPGKERELVASITTSGGTYYADSVKGRFTISRDNAKNTVYLQMNSLKPEDTAVYYCAADVYRSIGYDYWGQGTQVTVSS,low polyreactivity
6,QVQLVESGGCLVQAGGSLRLSCAASGNTFVDYAMGWYRQAPGKERELGAAIDQTGGSTYYADSVKGRFTISRDNAKNTVYLQMNSLKPVDTAVYYCASDLSDRKDLYPRWYDYWGQGSQVTVSS,low polyreactivity
7,QVQLVESGGGLVQAGGSLRLSCAASGRMFGRYVMGWYRQAAGKERELVASISTRGGRTYYADSVKGRFTISRDIAKNTVYLQMNSLKPEDTAVYYCAVVYPRFGAYDYWGQCTQVTVSS,high polyreactivity
8,QVQLVESGGGLVQAGGSLRLSCAASGSTFTGYAMGWYRQAPGKERELVASISYSGGSTYYADSVKGRFTISRDNAKNTVYLQMNSLKPEDTAVYYCNALQQYALSRYYWGQGTQVTVSS,high polyreactivity
9,QVQLVESGGGLVQAGGSLRISCAASGRIFDYYAMGWYRQAPGKERELVAAISYSGGSTHYADSVKGRFTISRDNAKNTVYLQMNSLKPEDTAVYYCAGWAWSGVEYDYWGQGTQVTVSS,low polyreactivity
10,QVQLVESGGGLVQAGGSLRLSCAASGRIFYYNTMGWYRQAPGKERELVARITQRGGRTYYADSVKGRFTISRDYAKNTVYLQMNSLKPVDTAVYYFNAKVRGTNTAGVDYWGQGTQVTVSS,high polyreactivity
11,QVQLVESGGGLVHAGGSLRLSCAASGFIFYQYAMGWYRQAPGQERELVAAISKSGGNTNYADSVKGRFTISRDNAKNTVYLQMNSLKPEDTAVYYCAADRGQRGLYYWGQGTQVTVSS,high polyreactivity
12,QVQLVESGGGLVQAGGSLRLSCAASGRTFIKYAMGWYRQAPGKERELVAAITYSAGSTSYADSVKGRFTISRDNAKNTVYLQMNRLKPEDTAVYYCARRTRSYGYRSDYYYWGQGTQVTVSS,low polyreactivity
13,QVQLVESGGGLVQAGGSLRLSCAASGYSFSYNAMGWYRQAPGKERELVAAMSRTGGSTNYADSVKGRFTISRDHAKKTVDLQMNSLKPEDTAVYDCAKRYRYPSWGEYGYWGLGTQVTVSS,high polyreactivity
14,QVQLVESGGGLVQAGGSLRLSSAASGRTFTTYAMGWYRQAHGKERELVAAISGSGGSTYYADSVKGRFTISRDNAKNTVYLQMNSLKPEDTAVYYCATAYYYHGGYYYPYDDYWGQGTQVTVSS,low polyreactivity
15,QVQLVESGGGLVQAGGSLRISCAASGRTFYPYAMGWYRQAPGKEREFVAAITLTGDSTYYADSVKGRFTISRDNAKNTVYLQMNSLKPEDTAVYYCNAGVGARESDYWGQGTQLTVSS,low polyreactivity
16,HVQLVESGGGLVQAGGSLRLSCAASGGIFYGNVMGWYRQAPGKERELVADITSVGSTYYADSVKGRFTISRDNAKNTVYLQMNSLKPEDTAVYYCAAEPDHVADSHSGYDYWGQGTQVTVSS,low polyreactivity
17,QVQLVESGGGLVQAGGSLRLSCAASGRIFIYNAMGWYRQAPGKETELVAAISSGGDTYYADSVKGRFTISRDNAKNTVYLQMNSLKPEDTAVYYCAARVYRYRGYDSWGQGTQVTVSS,high polyreactivity
18,QVQLVESGGGLVQAGGSLRLSCAASGSIFHVNAMGWYRQAPGKERELVAGISDGGSTYYADSVKGRFTISRDNAKNTVYLQMNSLKPEDTAVYYCAAESEQWYSYVLSYDWEYDYWGQGTQVTVSS,low polyreactivity
19,QVQLVESGGGLDQAGGSLRLSCAASGLIFLVNAMGWYRQPPWKERDLVAAIDLDGGITYADSVKGRFTISRDNAKNTVYLQMNSLKPEDTAVYYCAADPSSYGRFTYDYWGQGTQVTVSS,low polyreactivity
20,QVQLAESGACLVQAGGRLRLSCAASGRIFSFYAMGWYRQAPGKERELVITSGGDTNYADSVKGRFTISRDNAKNSVYLQMNSLKPEDTAVYYCNAEGDRSQPYNFDYWGQGTQVTVSS,low polyreactivity
21,QVQLVESGGGLVQAGGSLRLSCAASGYILYINTMGWYRQAPGKERELVAAITYSGASTYYADSVKGRFTISRDNAKNTVYLQMNSLKPEDNGVYYCAADGYYGGYNYWGQGTQVTVSS,low polyreactivity
